Assay [1] concerns the target T1, recombinant human TSLP (R&D Systems) (human, UniProt Q969D9 29-159).
T1 construct: also called hTSLP; human thymic stromal lymphopoietin
Put plainly: BioVeris electrochemiluminescence screening, Fab in E. coli lysate on biotinylated TSLP coupled to streptavidin beads.
Method: BEL extracts were diluted in assay buffer (PBS/0.05% Tween20/0.5% BSA) for use in BioVeris screening.

Assay [2] has as its target T1, recombinant human TSLP (R&D Systems). Put plainly: SPR (Biacore), biotinylated recombinant human TSLP on SA-chip, Fab as analyte. (In general: In SPR one partner is held on a chip, and binding of the other changes the refractive index at the surface.)
Method: A respective amount of biotinylated human serum albumin (HSA) was immobilized on the reference flow cell. […] The Fabs were applied in concentration series of 16-500 nM at a flow rate of 20 μl/min. Association phase was set to 60 s and dissociation phase to 120 s.

B1: MOR05024 Fab (Fab, V domains shown)
VH: QVQLVQSGAEVKKPGSSVKVSCKASGGTFSSYAISWVRQAPGQGLEWMGNIYPIFGYANYAQKFQGRVTITADESTSTAYMELSSLRSEDTAVYYCARYGQYGQHFSHGGMDVWGQGTLVTVSS
VL: DIQMTQSPSSLSASVGDRVTITCRASQDISISLTWYQQKPGKAPKLLIYGAFSLQSGVPSRFSGSGSGTDFTLTISSLQPEDFATYYCQQFWFEPVTFGQGTKVEIKR
As for B1, in assay [1], the binding result is “binds”.

B2: MOR05026 Fab (Fab, V domains shown)
VH: QVQLVQSGAEVKKPGSSVKVSCKASGGTFSSYAISWVRQAPGQGLEWMGNIYPIFGYANYAQKFQGRVTITADESTSTAYMELSSLRSEDTAVYYCARYGQYGQHFSHGGMDVWGQGTLVTVSS
VL: DIQMTQSPSSLSASVGDRVTITCRASQDISISLTWYQQKPGKAPKLLIYGAFSLQSGVPSRFSGSGSGTDFTLTISSLQPEDFATYYCQQFWSEPVTFGQGTKVEIKR
For the molecule B2, the binding result in assay [1] is “binds”.

B3: MOR05023 Fab (Fab, V domains shown)
VH: QVQLVQSGAEVKKPGSSVKVSCKASGGTFSSYAISWVRQAPGQGLEWMGNIYPIFGYANYAQKFQGRVTITADESTSTAYMELSSLRSEDTAVYYCARYGQYGQHFSHGGMDVWGQGTLVTVSS
VL: DIQMTQSPSSLSASVGDRVTITCRASQDISISLTWYQQKPGKAPKLLIYGAFSLQSGVPSRFSGSGSGTDFTLTISSLQPEDFATYYCQQFYFHSPTFGQGTKVEIKR
Take B3: the binding result in assay [1] was “binds”.

B4: MOR05025 Fab (Fab, V domains shown)
VH: QVQLVQSGAEVKKPGSSVKVSCKASGGTFSSYAISWVRQAPGQGLEWMGNIYPIFGYANYAQKFQGRVTITADESTSTAYMELSSLRSEDTAVYYCARYGQYGQHFSHGGMDVWGQGTLVTVSS
VL: DIQMTQSPSSLSASVGDRVTITCRASQDISISLTWYQQKPGKAPKLLIYGAFSLQSGVPSRFSGSGSGTDFTLTISSLQPEDFATYYCQQFWFHPVTFGQGTKVEIKR
For the molecule B4, the binding result in assay [1] was “binds”.

B5: MOR05027 Fab (Fab, V domains shown)
VH: QVQLVQSGAEVKKPGSSVKVSCKASGGTFSSYAISWVRQAPGQGLEWMGNIYPIFGYANYAQKFQGRVTITADESTSTAYMELSSLRSEDTAVYYCARYGQYGQHFSHGGMDVWGQGTLVTVSS
VL: DIQMTQSPSSLSASVGDRVTITCRASQDISISLTWYQQKPGKAPKLLIYGAFSLQSGVPSRFSGSGSGTDFTLTISSLQPEDFATYYCQQFWTEPVTFGQGTKVEIKR
Consider B5, for which the binding result in assay [1] is listed as “binds”.

B6: MOR05008 Fab (Fab, V domains shown)
VH: QVQLVQSGAEVKKPGSSVKVSCKASGGTFSSYAISWVRQAPGQGLEWMGGIIPEFGFTNYAQKFQGRVTITADESTSTAYMELSSLRSEDTAVYYCARSGMFYSILFDYWGQGTLVTVSS
VL: DIQMTQSPSSLSASVGDRVTITCRASQDIYNYLNWYQQKPGKAPKLLIYGASSLQSGVPSRFSGSGSGTDFTLTISSLQPEDFAVYYCQQQNDYPLTFGQGTKVEIKR
On to B6, for which the binding result in assay [1] is “binds”.

B7: MOR05009 Fab (Fab, V domains shown)
VH: QVQLVQSGAEVKKPGSSVKVSCKASGGTFSSYAISWVRQAPGQGLEWMGHISPEFGFTNYAQKFQGRVTITADESTSTAYMELSSLRSEDTAVYYCARSGMFYSILFDYWGQGTLVTVSS
VL: DIQMTQSPSSLSASVGDRVTITCRASQDIYNYLNWYQQKPGKAPKLLIYGASSLQSGVPSRFSGSGSGTDFTLTISSLQPEDFAVYYCQQQNDYPLTFGQGTKVEIKR
In the case of B7, in assay [1], the binding result is recorded as “binds”.

B8: MOR04609 Fab (Fab, V domains shown)
VH: QVQLQQSGPGLVKPSQTLSLTCAISGDSVSSNSAAWGWIRQSPGRGLEWLGRIYYRSKWLNDYAVSVKSRITINPDTSKNQFSLQLNSVTPEDTAVYYCARDGGWYIDVWGQGTLVTVSS
VL: DIELTQPPSVSVAPGQTARISCSGDNLGSYYANWYQQKPGQAPVLVIYEDKRPSGIPERFSGSNSGNTATLTISGTQAEDEADYYCQSFDSYHSDYVFGGGTKLTVLG
notes: carries two C-terminal tags (FLAG and 6xHis)
In the case of B8, in assay [2], the binding result is “binds”.

B9: MOR05013 Fab (Fab, V domains shown)
VH: QVQLVESGGGLVQPGGSLRLSCAASGFTFSSYYMSWVRQAPGKGLEWVSGIFFDGETYYADSVKGRFTISRDNSKNTLYLQMNSLRAEDTAVYYCARQQYFDHIDIWGQGTLVTVSS
VL: DIELTQPPSVSVAPGQTARISCGGDSLGGKYVYWYQQKPGQAPVLVIYGDSKRPSGIPERFSGSNSGNTATLTISGTQAEDEADYYCQSYTNALSTVFGGGTKLTVLG
As to B9, in assay [1], the binding result is listed as “binds”.

B10: MOR05011 Fab (Fab, V domains shown)
VH: QVQLVESGGGLVQPGGSLRLSCAASGFTFSSYYMSWVRQAPGKGLEWVSGIFYDGSTYYPDSVKGRFTISRDNSKNTLYLQMNSLRAEDTAVYYCARQQYFDHIDIWGQGTLVTVSS
VL: DIELTQPPSVSVAPGQTARISCGGDSLGGKYVYWYQQKPGQAPVLVIYGDSKRPSGIPERFSGSNSGNTATLTISGTQAEDEADYYCQSYTNALSTVFGGGTKLTVLG
Consider B10, for which the binding result in assay [1] is on record as “binds”.

B11: MOR05015 Fab (Fab, V domains shown)
VH: QVQLVESGGGLVQPGGSLRLSCAASGFTFSSYYMSWVRQAPGKGLEWVSGTFFDGSTYYADSVKGRFTISRDNSKNTLYLQMNSLRAEDTAVYYCARQQYFDHIDIWGQGTLVTVSS
VL: DIELTQPPSVSVAPGQTARISCGGDSLGGKYVYWYQQKPGQAPVLVIYGDSKRPSGIPERFSGSNSGNTATLTISGTQAEDEADYYCQSYTNALSTVFGGGTKLTVLG
On to B11, for which the binding result in assay [1] is listed as “binds”.

B12: MOR05014 Fab (Fab, V domains shown)
VH: QVQLVESGGGLVQPGGSLRLSCAASGFTFSSYYMSWVRQAPGKGLEWVSGIFFDGTTYYADSVKGRFTISRDNSKNTLYLQMNSLRAEDTAVYYCARQQYFDHIDIWGQGTLVTVSS
VL: DIELTQPPSVSVAPGQTARISCGGDSLGGKYVYWYQQKPGQAPVLVIYGDSKRPSGIPERFSGSNSGNTATLTISGTQAEDEADYYCQSYTNALSTVFGGGTKLTVLG
In the case of B12, in assay [1], the binding result was “binds”.

B13: MOR05012 Fab (Fab, V domains shown)
VH: QVQLVESGGGLVQPGGSLRLSCAASGFTFSSYYMSWVRQAPGKGLEWVSGIFFTGETYYPDSVKGRFTISRDNSKNTLYLQMNSLRAEDTAVYYCARQQYFDHIDIWGQGTLVTVSS
VL: DIELTQPPSVSVAPGQTARISCGGDSLGGKYVYWYQQKPGQAPVLVIYGDSKRPSGIPERFSGSNSGNTATLTISGTQAEDEADYYCQSYTNALSTVFGGGTKLTVLG
As for B13, the binding result in assay [1] is “binds”.

B14: MOR05010 Fab (Fab, V domains shown)
VH: QVQLVESGGGLVQPGGSLRLSCAASGFTFSSYYMSWVRQAPGKGLEWVSGIFFDGETYYAGSVKGRFTISRDNSKNTLYLQMNSLRAEDTAVYYCARQQYFDHIDIWGQGTLVTVSS
VL: DIELTQPPSVSVAPGQTARISCGGDSLGGKYVYWYQQKPGQAPVLVIYGDSKRPSGIPERFSGSNSGNTATLTISGTQAEDEADYYCQSYTNALSTVFGGGTKLTVLG
For the molecule B14, the binding result in assay [1] is “binds”.

B15: MOR05019 Fab (Fab, V domains shown)
VH: QVQLVESGGGLVQPGGSLRLSCAASGFTFSNHALSWVRQAPGKGLEWVSVISFDGVKFYADSVKGRFTISRDNSKNTLYLQMNSLRAEDTAVYYCARYYGYSYMDYWGQGTLVTVSS
VL: DIELTQPPSVSVAPGQTARISCSGDNLGSKYVHWYQQKPGQAPVLVIYADNNRPSGIPERFSGSNSGNTATLTISGTQAEDEADYYCQSYDHMLQVFGGGTKLTVLG
notes: also called MOR5019
On to B15, for which, in assay [1], the binding result is reported as “binds”.

B16: MOR05020 Fab (Fab, V domains shown)
VH: QVQLVESGGGLVQPGGSLRLSCAASGFTFSNHALSWVRQAPGKGLEWVSGIQYDGSNTGYADSVKGRFTISRDNSKNTLYLQMNSLRAEDTAVYYCARYYGYSYMDYWGQGTLVTVSS
VL: DIELTQPPSVSVAPGQTARISCSGDNLGSKYVHWYQQKPGQAPVLVIYADNNRPSGIPERFSGSNSGNTATLTISGTQAEDEADYYCSSYDSNSIRVFGGGTKLTVLG
In the case of B16, the binding result in assay [1] is listed as “binds”.

B17: MOR05022 Fab (Fab, V domains shown)
VH: QVQLVESGGGLVQPGGSLRLSCAASGFTFSNHALSWVRQAPGKGLEWVSGIQYDGSNTGYADSVKGRFTISRDNSKNTLYLQMNSLRAEDTAVYYCARYYGYSYMDYWGQGTLVTVSS
VL: DIELTQPPSVSVAPGQTARISCSGDNLGSKYVHWYQQKPGQAPVLVIYADNNRPSGIPERFSGSNSGNTATLTISGTQAEDEADYYCSSYTTSGIRVFGGGTKLTVLG
Regarding B17, the binding result in assay [1] is recorded as “binds”.

B18: MOR05021 Fab (Fab, V domains shown)
VH: QVQLVESGGGLVQPGGSLRLSCAASGFTFSNHALSWVRQAPGKGLEWVSGIQYDGSNTGYADSVKGRFTISRDNSKNTLYLQMNSLRAEDTAVYYCARYYGYSYMDYWGQGTLVTVSS
VL: DIELTQPPSVSVAPGQTARISCSGDNLGSKYVHWYQQKPGQAPVLVIYADNNRPSGIPERFSGSNSGNTATLTISGTQAEDEADYYCSSYDLDGVRVFGGGTKLTVLG
Regarding B18, the binding result in assay [1] was “binds”.

B19: MOR05016 Fab (Fab, V domains shown)
VH: QVQLVESGGGLVQPGGSLRLSCAASGFTFSSYYMSWVRQAPGKGLEWVSNISYDSSDTYYADSVKGRFTISRDNSKNTLYLQMNSLRAEDTAVYYCARQQYFDHIDIWGQGTLVTVSS
VL: DIELTQPPSVSVAPGQTARISCGGDSLGGKYVYWYQQKPGQAPVLVIYGDSKRPSGIPERFSGSNSGNTATLTISGTQAEDEADYYCQSYDLQSLNIVFGGGTKLTVLG
Take B19: in assay [1], the binding result is reported as “binds”.

B20: MOR05017 Fab (Fab, V domains shown)
VH: QVQLVESGGGLVQPGGSLRLSCAASGFTFSSYYMSWVRQAPGKGLEWVSNISYDSSDTYYADSVKGRFTISRDNSKNTLYLQMNSLRAEDTAVYYCARQQYFDHIDIWGQGTLVTVSS
VL: DIELTQPPSVSVAPGQTARISCGGDSLGGKYVYWYQQKPGQAPVLVIYGDSKRPSGIPERFSGSNSGNTATLTISGTQAEDEADYYCQSYDLKSLNVVFGGGTKLTVLG
As to B20, the binding result in assay [1] is recorded as “binds”.

B21: MOR05018 Fab (Fab, V domains shown)
VH: QVQLVESGGGLVQPGGSLRLSCAASGFTFSSYYMSWVRQAPGKGLEWVSNISYDSSDTYYADSVKGRFTISRDNSKNTLYLQMNSLRAEDTAVYYCARQQYFDHIDIWGQGTLVTVSS
VL: DIELTQPPSVSVAPGQTARISCGGDSLGGKYVYWYQQKPGQAPVLVIYGDSKRPSGIPERFSGSNSGNTATLTISGTQAEDEADYYCQSYDLGSLNLVFGGGTKLTVLG
Regarding B21, the binding result in assay [1] is “binds”.

Source of the values: US20130323237A1 (Novartis, published 2013).
